Reference: the DeepSol protein solubility set

Experiment: soluble on expression in E. coli; label from the status in PepcDB or PDB records

Soluble on expression in E. coli, not soluble:
MGSDKIHHHHHHMGNPRAFLTIHRQEAGYRPVHERIDDFSEVEQTLNSGDRRTQASRCMDCGVPFCHWACPLGNKQPEWQDLLYKGRYKEAYHVLEQTDDFPEFTGRVCPALCEKSCVLKLSCDEPVTIRENEAAIVEAAFREGYVQPIQPVRNGKKVAVIGSGPAGLTVANQLNRKGYEVTVFEKDELPGGLLRFGIPNFKLGKHIIDRRIRIMEQEGILFRVNTMVGKEILAKDVVKDFDAVCVAIGAEVPRDLSIEGRHLRGVHFALELLSQQNRILEGIPIPPKSQINCKGKKVLVIGGGDTGSDCVGTANRHGAACVTQIEIMPQPPVGQNPATPWPMYPQVLKTSSSHEEGCIRRWNLASNRFIGEKNNLIGVEVEEVEWVPSPDGGRPQMRQTGKKEIIEADLVFLAMGFLHPVQEGLIKELRLATDNRNNIAVDNAGYTANSNLFACGDAVSGASLVVKAMASGRNVARSIDRFLQTN
MGSDKIHHHHHHMGSFALPANAQCEAKNDAFQSGEHVMYDLYFNWKFVWVKAGIASLTTNATTYHSEPAYRINLLALGSKRADFFFKMRDTLTCVMGEKLEPRYFRKGAEEGKRYTVDEAWFSYKDGLCFAKQKRTFRDGEVQESEESDSRCIYDMLTILAQARSYDPADYKVGDKIKFPMATGRKVEEQTLIYRGKENVKAENGVTYRCLIFSLVEYDKKGKEKEVITFFVTDDKNHLPVRLDMFLNFGSAKAFLNDVRGHRHPLTSIVK
MGSDKIHHHHHHMGSQLFVRNGRKMQLTESGKKLYIATHKAFDTLLKGFNSIQTEDVAGTLTITSTQAFTSLWLMPRLYKFSIKHPEIKVKVVSSNGLEDLRRGHIDLAIRFITNKEVDTSDDMTYEFIAEDHVYPACSPQLMKEYNFKEPQDVLKCWLVSLENQGSIDWRTWFKEAGVENYQCHKKWTEVSSGDMALSAVLSGHGFTLASQALFSQYVITGQLVIPFNIKHPISFKRYFVFDPNSAKKERVNVFTTWLKEETLQDEKSTLEAISYGSL
MGSDKIHHHHHHMHDKFLNYFDETARQGSIRKAAAVLNMSSSSLNRKIISTENRLGIRLFDRHADGVTLTEAGVVVLEHCRNTLFDYQRIVNMVEDIRDMRTGHIDILTLDSIALSVLPEVLDDFQDAYPQVAYTIQTDEPHAVMQAVANGTADIGLSFSNDLHPDVRCQAEKSTPIGAIMAHDHPLAERDLIEVGDLAPYQLIRSYDSQTHRSFVNEAVSSLGVQLSTQMVTNSLPLAKTMILNGRGVGIYSKIGFIEEIEDGRLRYVAINSPLLRELRIGVLISARTGLLPVQHLLARALSKSLRSLRLDS
MGSDKIHHHHHHMHPNIATLLSANLGESRTRHLLSLVSVPDGLPSDAEGRATRAEIAQALNMVLFAGILDRVPTGRAYTDDVAATGGKVVFDHGALRTVKWRDNGALPEGEAAFTRILRPLGYRLNGNYPLDRISMTGRSYAHADAPEGIAQFFVSEFHPERFSDAFREAVGRVTGNSADPLTPRAQTLLWQLDRDGVLTVADGAELIGLLVPCFERQHGVPRLADYETLLRESAEMAWIATEGNAFNHATDRVDDVFGLSEQQKALGRPMKDKVEVSGSGRVKQTAFRADTVRRQFIGAQGETVERDVPGSFYEFITRDRFADAPAASPRVDLGFDAGNAQGIFKMTAAV
MGSDKIHHHHHHMHVFNYGRSYLERGDARPIYLPELPLVRGALLPQAPLDMAGALRDAAPDAWGRRVIINRLMGLKGVGAHAVEFDELTYLLHSGSDRIGALDFQTSPDRYRPREAENATLEELLEAAERVDRGEPIPPALDKALFHGSSIGGARPKALIEDGQEKFIAKFSATNDTYAIVKAEYVAMRLAKEAAGLTVAAVRLVKANGKDVLLVKRFDRERTGAGWTRRAMVSALTLLGLSEMQARYASYHDLTDIIRARFTEPRDSLRELYGRMVFNVLSGNTDDHARNHAAFWNGESLALTPAYDLCPQQRTGREANQAMLIGQEDRRSRLETCRLAASAFLLNDVEARALIHAQIDAIGAAWDGICDEADLSKIDRAFLWRRQFLNDYAFEGFGR
MGSDKIHHHHHHMHVKRAATAGFCMGVGLALKKLDRELDNNAKDIATLGPIIHNPQVLRRYEQKGVRCYTDPAEARSGQRVVIRAHGIPEETESALAAAGVDLVDATCPKVKRAQLGIARQREKGRTLLLFGEHDHPEVQGLLSYAGEGAVVFGSLEELQNGPLEDDRHYFLAAQTTQDKHAFTSVIEWVRRRFGDHVPVLDTICDATRERQDEAIAIARSVDVMVVVGGFASGNTRRLAEVAQAQGVPTYHVETPDQLPLDAIRGYGAAGLTAGASTPKSIIDETQKLLESL
MGSDKIHHHHHHMHVSLDTMVDTLKAAAESSRLRILALLSRGDLTVSDLTEILGQSQPRVSRHLKLLLEAGLIDRYQEGSWAFFRLSDADSARDFVMGLVSSIRGADPQVERDLERLASVKRKRQDRAAEYFSVNAASWDHIRSLHVPDRAVEAAMLKLVGKRPFQSMLDLGTGTGRLLEIFSPLYRRGVGIDMSREMLTVARANLDKAGVSNAQVRQGDIFSPPVERDAFDLVTIHQVLHYLDDPARAIHEAARLLRPSGRLVIVDFAPHTLEFLREEHAHMRLGFSDRQIGEWFAEAGLDLEDAQEFEPRGGSEPRLTVKLWLGRDRRLLIADPANDSQQTKVNSIGEIA
MGSDKIHHHHHHMHYPPMIATTLPDGPEQTPLTAEIVLRYHLCWKHRDLDGVMALYHPDIQYHDFFQNRVLGHQELRDYVRACLPHEAGEDIVHSDRIRVDGSTAFIQYQVTVQGGDGLVAFQSSEAITVRDGLIWRVNEYATLVRQNGTGHANSGPRPATSRLGLSPRQLSTMAQDLEHYFRRQRPYLDPELDLQQVADASGYSRNQISYLLNQVLGQSFYRYVNQARLQHLMASLGDDSVEATIDELAFSAGFNSLSAFYKCFREHTGFTPKAYLKQISLRART
MGSDKIHHHHHHMHYQFFATCPRGLEPLLEDELNSIRARQIKPTDGGVGFAGDMLLCYRANLESRIATRILLQVGKGRYSNEDELYQGAYKIDWVQWFEVEQDFMVKVTGVRCPLKSLEFATLRIKDAICDRFREEVGSRPSIDTREPDVRVHAYLGAEEYQLYVDTSGNALYQRGLRRASIEAPLRENLAAGILKLSGWQPGTPLLDPMCGSGTFLLEAAMISLDIAPGSNRSFGFERLKNFNAGAWQSLLKQAKSRAKPVAFQGIYGSDADLRAVRITRKNLEQAGLLDAMQVAHREFTDVVPPAAEGILVANPPYGVRIGEDEELAALYPKMGEALKKKFAGWNAYFLTNDMRLPKLMRLSPTKRTPLFNGPLECRVFEIKMVAGSNRKEKSND
MGSDKIHHHHHHMIDEIKSGKYKHGDKLPTEKELMERFNASRETVRKALERLVVKNLVIRKPGLGTFVNIEKKNKVVGILVQQITSYIFPYIALGAEEVLFANGYKMLLGNASEDPHKERQIINEWLEVGVDGLIIDPVYSATKRSNRDLIEDMAKKGTKVVLVHTNWDIEGVGSVVLDDWYGGEKAAEIFYQYGHRNVAVLYKTIHLPSVVRAQAFLKRGRELGFEKVHEKSFHVSEFTGIVMQSAFELLSLPKDQRPTAVFCYNDATALQFFLAAKRMGLKIPEDVSVIGFDDAPIGDFREILTTFEHPKEEVGKKAVEILLKMIDGEKPEKYVFKPKLIMRESVTYPKK
MGSDKIHHHHHHMIDSMTHRKLSKTAQPLSPTRPWHSTKATCYSAMLSTWSLSQKRLSISALILAITSTATWANEVKNQDIQAASKSNTCYVEGVSDRLNCGFVTVPENPNKPDGKQIQVHYVVLPAVKNANHEEALLAIAGGPGQSAIDNAAGFDAMLSKVRQQRDILLIDQRGTGRSNLLTCDESANPLSLDDDSIDPSAETQKCLDKIDADVSQYGSLNAVKDFEAVRAHLGYKKLHIYGISYGTRMAQLYMRLYPEQLATVTLDGVVPMQQSVLEIGSAIDRGFELLFKDCQENTVCKQQFPQLKAEFEQVANTLAKGAITENVFDPVTGEKNQLIITRGKFYGAIRMALYQTNVRALVPHAIHQAANNHFQPLLGLYALTVDNAGIAMGMHTSVVCGEDIHRITPAMREKAASSYVGQTMLDSMEKTCAIWKVPAVDNSFSEPISSNIPTLLLSGEIDPATPPSWGELAMEKLTNAKHFIAPYATHGVAYQSCANGLVADLVRTGSINDLDGECLNKDVRRSFYLNASSVEPLNATSTKTTTTNNNASTGAKE
